Laboratory results reported in the DeepSol protein solubility set.

assay: soluble on expression in E. coli; label from the status in PepcDB or PDB records

Sequence | soluble on expression in E. coli
MVLLKEYRVILPVSVDEYQVGQLYSVAEASKNETGGGEGVEVLVNEPYEKDDGEKGQYTHKIYHLQSKVPTFVRMLAPEGALNIHEKAWNAYPYCRTVITNEYMKEDFLIKIETWHKPDLGTQENVHKLEPEAWKHVEAIYIDIADRSQVLSKDYKAEEDPAKFKSIKTGRGPLGPNWKQELVNQKDCPYMCAYKLVTVKFKWWGLQNKVENFIHKQEKRLFTNFHRQLFCWLDKWVDLTMDDIRRMEEETKRQLDEMRQKDPVKGMTADD | soluble
MLYKRKNIKFKNFVDLHKNLSLSKLFDFYSVFEGFEKLNILNFEDDVFTNIERILLDDYLKIKSYFALDETSSYALTLLAKNNRKRFSINRKIQHFKALSTLKYLLETGIIKLEYSKEAKKIKDKRQKIKKELRSYVVQDKIIFSNHFTRFFFYFLKPNEKLILQNRYKEVLECIKEKFELYQSFCFEQLSRELLEKKFNINGVQSYWDKNLELDLYYQDENLCFVGEVKFKNKKICKNILNLLKSKAKSLNLAPNYYIIISKNGFSKEIDKICEQNLLLLDLNDFKILLEELEHHHHHH | not soluble
MKLKKTDVFNLDGTVKQTAFIHDQKTGKKNTLYLKPVQQDLMLYHAWLIQQNMNSEWLFPSTSRPDRPITEKQFYKIMARVGDLLGINYLGTHTMRKTGAYRVYTQSNYNIGLVMHLLNHSSEAMTLTYLGLDQASRENMLDQIDFG | not soluble
DSTITGASEKAEDAFKASYPAVYRYLEGYKDLLTKRNQAETGIRYEWYALQRWGANYWEDFSKPKIMWKRIGSILRFCYNENGALGLDSTCFAAGKG | not soluble
MGSDKIHHHHHHMIDLKQYEFWFLVGSQYLYGLETLKKVEQQASKIVDSLNDDPIFPSKIVLKPVLKSSSEITEIFEKANADPKCAGVIVWMHTFSPSKMWIRGLSINKKPLLHLHTQYNREIPWDTIDMDYMNLNQSAHGDREHGFIHARMRLPRKVVVGHWEEKEVREKIAKWMRVACAIQDGRMGQIVRFGDNMREVASTEGDKVEAQIKLGWSINTWGVGELAERVKAVPEREVEELLKEYREKYIMPEDEYSLKAIREQAKIEIALREFLKEKNAVGFTTTFEDLHDLPQLPGLAVQRLMEEGYGFGAEGDWKAAGLVRAIKVMGTSLPGGTSFMEDYTYHLTPGNELVLGAHMLEVCPTIAKEKPRIEVHPLSIGGKADPARLVFDGQEGPAVNASIVDMGNRFRLVVNKVLSVPIERKMPKLPTARVLWKPLPDFKRATTAWILAGGSHHTAFSTAIDVEYLIDWAEALEIEYVVIDENLDLEDFKKELRWNELYWGLLKR | not soluble
MADNKITFFGKCDGISVEQLIRYSRFNMNVKHFHNQYEIFYIIEGERQFFFDNKSYNAYAGDIAILDTNLVHTTCSISDEDKGYNRVILYIDYEKMCDFDKKYPGLNLVNYFHNNYGIYHLNEDQRIAFLNLYRDLRHELTKKNSGYQSRVEIATIYWLYKLLSLKHDSTQIHAVINSPKE | not soluble
MATWQGTNGGLLAGIGGVNSNAPSVNDIGNTLQLIRQNNDIERSGANNVGLTALQGLSGIAGVFQQEKQAQRQKEFQQAYANAYASGDRGALRQLATQYPDQIESVRKGMGFIDEEQRNSIGTLAAGARLASSSPEAMQSWLQNNAGELARVGVNPHDVAQMYQQNPRQFGEFVDHLGMNSLGPEKYFDLQDKMQGRQVTMRGQDLDSQTAARNQAITMRGQDIQANLGQQRINLDAETNRINNENKRLDRMLSAETNDLKRQEIQSRIAANNQQLQQKQQALNDGYKDGINTLTTSMFTLNDIVSSPSLKSITGLRGVIPNVPGSQAADTQARLDTFKSQAYLTAVQAMRGMGALSDAEGKKLDQAVGSLQNSQSEESFRRNAGVILNTLNQKRNEAVGKYVQQNGIKRVEAPQASIDYLKQHPELSIDFINRYGYLPSLGQ | soluble
MAHHHHHHMDEFRPDDTTQIEEGSESNAALLQLQDALVSALTASGTLGKIRAQLRATALALIRGDDELQNAAVGPFIRPRTLTTHAKVSLLLLHDFLQHYHLQQTAGVLDVESSVHLLFNERSVLLGDLARLPGDGSLLERLVRLYEPTRQIPAVGPSGATAVTTASQTSVSIPAAKLPASPVASSSSSASQEQTVAMAQPQDADVQYELDAYEDSIPFSDTEGTIDGNVHCDEVERLTQ | not soluble
SLAPTTEIEPIEAQSLKKLSLKSLKRSLELFSPVHGQFPPPDPEAKQIRLSHKMKVAFGGVEPVVSQPPRQPDRINEQPGPSNALSLAAPEGSKSTQKGATESAIVVGPTLLRPILPKGLNYTGSSGKSTTIIPANVSSYQRNLSTAALMERIPSRWPRPEWHAPWKNYRVIQGHLGWVRSVAFDPSNEWFCTGSADRTIKIWDVATGVLKLTLTGHIEQVRGLAVSNRHTYMFSAGDDKQVKCWDLEQNKVIRSYHGHLSGVYCLALHPTLDVLLTGGRDSVCRVWDIRTKMQIFALSGHDNTVCSVFTRPTDPQVVTGSHDTTIKFWDLRYGKTMSTLTHHKKSVRAMTLHPKENAFASASADNTKKFSLPKGEFCHNMLSQQKTIINAMAVNEDGVMVTGGDNGSIWFWDWKSGHSFQQSETIVQPGSLESEAGIYAACYDNTGSRLVTCEADKTIKMWKEDENATPETHPINFKPPKEIRRF | soluble
MKIVSIKIKNYRVFEDIKITNIPSFCVIIGANGTGKSTLFDVFGFLRDALKNNIRQALQIRGGFKEVVTRGKESEDIEIELKFRMEILATERLVTYILIIGQEGKKPVIKREILRYKRGEYGSPFHFLDFHNGQGYAIRNEESFESDEELEREEQKLESADILAIKGLGQFQRFKAANAIRSLIENWHVSDFHISDARGSKAALYAEHLSPTGDNIPIVAQYIYQEHPEIFAEILQRMKQRVPGISNVEAKEIEGGSLILKFQDQAFEDSFVDLYVSDGTIKMFAYLILLFDPKPHPLLCVEEPENQLYPTLLRELAEEFASYAHRGGQVFVSTHSPDFLNAVPLDSIFWLIKIQGVTKVEKAADHEVLRNLIAAGDLPGYLWNQGWFEGVAPLEHHHHHH | not soluble
MAHHHHHHMVVPVMNMTREPAVDSPENSRKISLAGYPEVAGLFCVTVFKSTLDLEVRDCCGLLTLDGVGKCVELKKFSISNCGMLTNISDLKDCVNLEMLTLSGCKTLRNLTPLKGHRTLSCITISHCERMMELDLEGATNLMQLNISDCEELKDVHVSRCTRLEVIDIHDCVKLEKLHGLTYLRELKTLILAGNRELSAVEGINELINRVEKLSLKNCEKLEDLKFLDFCNFLKEVVVAGSNVTEEKKQELRGKGVRIVNEVKVADG | not soluble
MTPTEQAAVRPPLPVKMVIAGGFGVGKTTAVGSISEIVPLTTEAAITEVAAGVDDLTHTPRKTTTTVAMDFGCITIDPTLKLYLFGTPGQDRFGFMWDDLVEGAVGGLVIVDTRRLDDCYAAVDYFEHKQIPFAVALNAFDGRIEHDLDEVRWALDVAERVPVVVFDARERGSVRDALLVVLELALARTGALEHHHHHH | not soluble
MGSDKIHHHHHHMYNYPFENFDFIDFWDDDEYAMNEYIGAPPTEEMIEETERELGYKLPESYIWLMKQHNGGIPFNVCFPCDEPTSWADDHVAITGIMGVDKDKIYSLCGQLGSRFMIEEWGYPDIGVAICDCPSVGHDMIFLDYRECGPQGEPKVVHVDQEDDYYVTFLADNFEEFIRGLVNEEVFDTSEEDERMELEKVRNAAFSPLLSDLCAKCDHPVDTERWIRKISEEIVTDKGFFALHADERSYLLYDIQLWLYTNVYPDTTEEDYLSAYKKIIALDGEFSTGGYASDFVTDWLTRRKESGMVTCNDGILSMAAGTKEALLANRELISNKEQ | not soluble
MGSDKIHHHHHHMLINRNIVALFALPFMASATASELSIGAGAAYNESPYRGYNENTKAIPLISYEGDTFYVRQTTLGFILSQSEKNELSLTASWMPLEFDPTDNDDYAMQQLDKRDSTAMAGVAWYHHERWGTVKASAAADVLDNSNGWVGELSVFHKMQIGRLSLTPALGVLYYDENFSDYYYGISESESRRSGLASYSAQDAWVPYVSLTAKYPIGEHVVLMASAGYSELPEEITDSPMIDRNESFTFVTGVSWRF | not soluble
MTRPPLPPFTAETAAEKVRLAENGWNNRSADVVTPAYSDDSRWRNRAEFVTGHDDIHAFLTRKWDKELDYRLIKELWAWSGNRIAVRYAYEWHDDSGNWFRSYGNENWEFDEDGRMSARHTSLNDLPITEDERLFHWPLGPRPDGHPGLTDLGLLEHHHHHH | not soluble
MSLERPLCISYIRFSKATQAEGSSLERQLQLSRTYAEEHGLVLDDKHSYQDLGKSAFTSEHVKEGEFGVFLEFVKQGRVPKGSVLLVESLDRLSRESVLTAFKQFQEILDAGIKIVTLSDKMEYTKEGFEANIGNIFISLGIMARANEESLRKSERICAAWRLKRKNLHNIKLTANCPGWLELTPDKKDFILKEDRVEIVKQIFELSLSGLGVKAISTILNKQKIEPFRSKIGWYQTTVRKILSNSAVIGEFQPHVFGSKHSKPVPDGELIKDYFPPIIDTDTFYAVQAKLKNGAHRPGRTAKVENLFSGYTRCGYCGSRMDVVARHNVGGEVRYLVCDSARRGVKCSYISMKCNEIEKAFFEYCREIDIRYVLRAEQQADQNRLNELRKSLTARNGKLMKVQKQIDMLNVFLDDITERAELEHYHEQIKKKLEEKTNLSEEIEKLSKGICIAEYDNNNIDVRVQNLLTLDKAQNKSVKEDDKIMFRIRLRDELRQIISQILVYPRGSVFSDEQIEQKERDYEIKIKSASDSEKHILKHEKTIDLDGMRQSQQNTKDDRFFVVRFKNGNYRTIKYDKKQQAYRVTSELINDKLNWWMGNKEMAPIFREEEELHPFETEFELDSNEGHHHHHH | not soluble
MALSTLNREVIKKNLQNEEYDVVIIGGGITGAGIALDASQRGMKVALVEMQDFAQGTSSRSTKLVHGGLRYLKQAQIKVVAETGKERAIVYENGPHVTTPEWMLLPMHKGGTFGKFTTNLGLTAYDRLAGVKKYERKKMLSKKQTLNKEPLVKKDGLKGGGYYVEYRTDDARLTIEVMKRAEENGAEILNHTKSTDFIYDSKSKVRGIEVQDLLTGEMYEINAKKVINAAGPWVDEVRKKDYTRNNKQLRLTKGVHVVIDQSKFPLRQAVYFDTEKDGRMIFAIPREGKAYVGTTDTFYDNDKTKPLTTQEDRDYLIDAINYMFPDVNVKDEDIESTWAGVRPLILEDGKDPSEISRKDEIWEGKSGLLTIAGGKLTGYRHMALEIVDLLAKRLKQEYKLTFAECKTKHTPISGGDVGGSANFESFVERKVEEGKAIGLQADVAKRLASKYGSNVDKLYNIAQIAQDKDLKLPLELYVELVYSVQNEMVFKPTDFLIRRSGKLYFNINEVKQYKDAVVEELAKLLNYTQSQQNEFTKEINIAIEEATRGNEQLAVLKLEHHHHHH | soluble
MSAEASGPAAAAAPSLEAPKPSGLEPGPAAYGLKPLTPNSKYVKLNVGGSLHYTTLRTLTGQDTMLKAMFSGRVEVLTDAGGWVLIDRSGRHFGTILNYLRDGSVPLPESTRELGELLGEARYYLVQGLIEDCQLALQQKRETLSPLCLIPMVTSPREEQQLLASTSKPVVKLLHNRSNNKYSYTSTSDDNLLKNIELFDKLALRFHGRLLFLKDVLGDEICCWSFYGQGRKIAEVCCTSIVYATEKKQTKVEFPEARIFEETLNILIYETPRGPDPALLEATGGAAGAGGAGRGEDEENREHRVRRIHVRRHITHDERPHGQQIVFKD | soluble
SAAETRNVAGAEAPPPQKRYYRQRAHSNPMADHTLRYPVKPEEMDWSELYPEFFAPLTQNQSHDDPKDKKEKRAQAQVEFADIGCGYGGLLVELSPLFPDTLILGLEIRVKVSDYVQDRIRALRAAPAGGFQNIACLRSNAMKHLPNFFYKGQLTKMFFLFPDPHFKRTKHKWRIISPTLLAEYAYVLRVGGLVYTITDVLELHDWMCTHFEEHPLFERVPLEDLSEDPVVGHLGTSTEEGKKVLRNGGKNFPAIFRRIQDPVLQAVTSQTSLPGH | soluble
MGHHHHHHSHIAMRRDRGPKPALGGAGEVEPGGMAASPTGRPRRLQRYLQSGEFDQFRDFPIFESNFVQVTRLGEVANEVTMGVAASSPALELPDLLLLAGPAKENGHLQLFGLFPLKFVQLFVHDKSRCQLEVKLNTSRTFYLQLRAPLKTRDREFGQWVRLLYRLRFLSASAVPFTQE | not soluble
